Values quoted from earlier work, collected in publication PMC12026706.

Key:
Assay in all cases: BIAcore SPR
[1] = biological target: TLR4 (Homo sapiens) (UniProt O00206)
[2] = biological target: MD2 (Homo sapiens) (UniProt Q9Y6Y9)
[3] = biological target: TLR4/MD2 complex (Homo sapiens) (UniProt O00206)
[4] = biological target: TREM-1 (Homo sapiens) (UniProt Q9NP99)
[5] = biological target: IL-6R (Homo sapiens) (UniProt P08887)
Sequence of IL-6R (Homo sapiens) (P08887 20-355): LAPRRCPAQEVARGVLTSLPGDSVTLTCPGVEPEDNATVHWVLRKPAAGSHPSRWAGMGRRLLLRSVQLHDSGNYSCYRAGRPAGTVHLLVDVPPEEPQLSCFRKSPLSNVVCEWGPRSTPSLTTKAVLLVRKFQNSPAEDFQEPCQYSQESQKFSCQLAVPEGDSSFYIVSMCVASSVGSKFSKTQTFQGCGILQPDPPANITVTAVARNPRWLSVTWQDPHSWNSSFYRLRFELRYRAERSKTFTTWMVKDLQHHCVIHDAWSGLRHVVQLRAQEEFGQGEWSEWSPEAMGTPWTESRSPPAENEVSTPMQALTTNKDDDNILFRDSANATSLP

Sequence of eCIRP (Q14011 whole entry): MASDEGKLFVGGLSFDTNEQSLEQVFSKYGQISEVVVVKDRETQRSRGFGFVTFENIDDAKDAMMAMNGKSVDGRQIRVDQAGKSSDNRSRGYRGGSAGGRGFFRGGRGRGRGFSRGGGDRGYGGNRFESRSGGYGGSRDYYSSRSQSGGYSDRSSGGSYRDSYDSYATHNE
Sequence of TLR4 (Homo sapiens) (O00206 24-839): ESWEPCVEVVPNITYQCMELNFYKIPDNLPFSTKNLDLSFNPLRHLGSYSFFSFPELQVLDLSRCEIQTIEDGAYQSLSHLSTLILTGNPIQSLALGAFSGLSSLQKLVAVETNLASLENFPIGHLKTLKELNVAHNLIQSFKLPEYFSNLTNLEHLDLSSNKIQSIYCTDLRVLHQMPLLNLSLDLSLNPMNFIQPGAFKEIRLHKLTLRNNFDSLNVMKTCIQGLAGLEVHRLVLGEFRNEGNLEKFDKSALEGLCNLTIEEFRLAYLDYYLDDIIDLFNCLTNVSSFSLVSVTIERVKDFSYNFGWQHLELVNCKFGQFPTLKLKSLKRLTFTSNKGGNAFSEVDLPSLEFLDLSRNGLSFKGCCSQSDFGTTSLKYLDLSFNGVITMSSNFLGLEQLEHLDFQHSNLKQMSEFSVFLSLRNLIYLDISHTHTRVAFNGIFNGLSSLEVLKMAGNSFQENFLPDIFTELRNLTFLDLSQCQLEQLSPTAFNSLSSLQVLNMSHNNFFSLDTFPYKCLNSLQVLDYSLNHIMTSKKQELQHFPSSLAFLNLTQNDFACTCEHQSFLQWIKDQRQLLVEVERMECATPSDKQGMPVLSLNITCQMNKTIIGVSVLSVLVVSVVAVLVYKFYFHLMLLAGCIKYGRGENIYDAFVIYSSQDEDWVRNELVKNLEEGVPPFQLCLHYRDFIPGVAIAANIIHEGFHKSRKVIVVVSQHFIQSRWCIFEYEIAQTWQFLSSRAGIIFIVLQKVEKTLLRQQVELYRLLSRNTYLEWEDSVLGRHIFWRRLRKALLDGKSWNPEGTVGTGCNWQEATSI
Sequence of TLR4/MD2 complex (Homo sapiens) (O00206 24-839, chain 1 of 2): as the sequence (O00206 24-839) above
Sequence of TLR4/MD2 complex (Homo sapiens) (Q9Y6Y9 19-160, chain 2 of 2, further chain): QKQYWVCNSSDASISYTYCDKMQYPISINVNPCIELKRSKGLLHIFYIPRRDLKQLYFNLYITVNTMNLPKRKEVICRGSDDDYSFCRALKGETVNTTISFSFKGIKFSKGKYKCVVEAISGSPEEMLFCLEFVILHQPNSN
Sequence of TREM-1 (Homo sapiens) (Q9NP99 21-234): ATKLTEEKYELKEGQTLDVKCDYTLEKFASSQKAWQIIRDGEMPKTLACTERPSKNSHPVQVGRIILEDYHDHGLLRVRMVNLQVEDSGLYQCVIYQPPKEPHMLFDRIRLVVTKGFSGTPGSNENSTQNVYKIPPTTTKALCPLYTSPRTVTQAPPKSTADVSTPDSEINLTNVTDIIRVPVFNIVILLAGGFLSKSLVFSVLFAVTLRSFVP
Sequence of MD2 (Homo sapiens) (Q9Y6Y9 19-160): as the sequence (Q9Y6Y9 19-160, chain 2 of 2, further chain) above

Kd [1]: 617 nM
Kd [2]: 302 nM
Kd [3]: 239 nM
Kd [4]: 117 nM
Kd [5]: 98 nM
Substance: eCIRP (from UniProt Q14011)
